Experimental data as given in patent US20140348902A1 (University of Texas, published 2014).
Values belong to the binder of their own block, whether it stands above or below them.

Key:
[1] = target: T1, HLA-A2 (HLA-A*0201) on TAP-deficient T2 cells (human); test: T2 binding assay, flow cytometry for HLA-A2
T1 construct: also called MHC I (HLA-A2)
Description: (§1) TAP-deficient T2 cells were incubated with 20 μg/ml of peptides and 3 μg/ml of β₂-microglobulin (Sigma-Aldrich, Cat # M4890) for 24 hours at 37° C. and 5% CO₂ in air. […] The binding affinity of the peptide to HLA-A2 (T2 binding index) was quantified as follows: (Mean fluorescence intensity [MFI] of HLA-A2 with peptide—MFI of HLA-A2 without peptide)/(MFI of HLA-A2 without peptide).

[2] = target: T1, HLA-A2 (HLA-A*0201) on TAP-deficient T2 …; test: T2 cell peptide-binding assay, flow cytometry for HLA-A2
Description: as §1

binding result [1]: binds
B1: TCL1 65-79 peptide (TQIGPSLLPIMWQLY) (peptide)
peptide: TQIGPSLLPIMWQLY
notes: Synthetic peptide (Sigma-Aldrich, >70% purity); also called P17

binding result [2]: binds
Binder: LLPIMWQL (Synthetic peptide) [TCL1 71-78 peptide (LLPIMWQL)]
